Biological target: Zif268-HMGa1-mCherry fusion protein (Mus musculus? (Zif268) / Homo sapiens …)
Experiment: SPR; about 140 nM; target immobilised on CM5 chip (Biacore)
Experimental: Affinity of the fusion proteins prepared in Example 1 to a target nucleic acid nucleotide sequence was measured using a surface plasmon resonance (SPR) system (Biacore) to determine the equilibrium dissociation constant, Kd, for forming the fusion protein-target nucleic acid complex. After immobilization of the target nucleic acid (SEQ ID NO. 9) to a CM5 chip, the fusion proteins were loaded into the microfluidic chamber of the SPR.

Sequence of Zif268-HMGa1-mCherry fusion protein (Mus musculus? (Zif268) / Homo sapiens …) (chain, as listed by the source): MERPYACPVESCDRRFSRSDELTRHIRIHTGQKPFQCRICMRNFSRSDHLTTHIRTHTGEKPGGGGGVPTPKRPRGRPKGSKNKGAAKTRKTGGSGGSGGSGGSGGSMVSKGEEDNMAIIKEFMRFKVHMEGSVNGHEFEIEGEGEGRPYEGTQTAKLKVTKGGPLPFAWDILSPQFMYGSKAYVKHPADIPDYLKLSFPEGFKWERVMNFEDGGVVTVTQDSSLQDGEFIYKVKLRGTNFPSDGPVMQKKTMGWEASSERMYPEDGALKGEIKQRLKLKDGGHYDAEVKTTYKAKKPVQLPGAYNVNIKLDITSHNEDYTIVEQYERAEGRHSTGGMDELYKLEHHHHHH

B1: target nucleic acid (Zif268 target) (dsDNA)
DNA 1: GTGTGTGTGTGATCTGCGTGGGCGGTAAG
DNA 2: CTTACCGCCCACGCAGATCACACACACAC
- Kd: 140 nM
